From PMC5748854 (The Journal of Experimental Medicine, 2018)

Target: C-PfCSP (recombinant PfCSP C terminus, linker and αTSR subdomains) (Plasmodium falciparum NF54, UniProt P19597)
Assay: ELISA

- binding result: binds
B1: 1710 IgG (antibody, V domains shown)
VH: EVQLQESGGGLVKPGGSLRLSCAASGFTFSSYSMNWVRQAPGKGLEWVSSITSSSSYIYYADSVKGRFTISRDNAKNSLYLQMNSLRAEDTAVYYCARDPGIAAADNHWFDPWGQGTLVTVSS
VL: not shown
